From US7022489 (dated 2006) come the findings set out here.

Experiment [1] concerns the target T1, rat GALR3 (rat).
T1 chain: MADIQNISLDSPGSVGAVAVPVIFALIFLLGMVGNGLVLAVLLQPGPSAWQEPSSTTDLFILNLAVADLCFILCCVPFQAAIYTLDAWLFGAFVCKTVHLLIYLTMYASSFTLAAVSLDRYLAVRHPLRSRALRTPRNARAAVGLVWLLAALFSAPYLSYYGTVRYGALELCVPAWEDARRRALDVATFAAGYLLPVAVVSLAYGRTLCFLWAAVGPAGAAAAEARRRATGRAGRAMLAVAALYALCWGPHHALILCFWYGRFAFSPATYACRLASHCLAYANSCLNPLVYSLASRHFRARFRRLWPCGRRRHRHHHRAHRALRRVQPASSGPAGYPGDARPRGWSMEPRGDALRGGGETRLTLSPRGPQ
As to the kind of experiment: competition.

In experiment [2] the target is T1, rat GALR3. As to the kind of experiment: competition.
Experiment [3] addresses T1, rat GALR3. As to the kind of experiment: competition, COS-7.
Experiment [4] has as its target T2, human GALR3 (human).
T2 chain: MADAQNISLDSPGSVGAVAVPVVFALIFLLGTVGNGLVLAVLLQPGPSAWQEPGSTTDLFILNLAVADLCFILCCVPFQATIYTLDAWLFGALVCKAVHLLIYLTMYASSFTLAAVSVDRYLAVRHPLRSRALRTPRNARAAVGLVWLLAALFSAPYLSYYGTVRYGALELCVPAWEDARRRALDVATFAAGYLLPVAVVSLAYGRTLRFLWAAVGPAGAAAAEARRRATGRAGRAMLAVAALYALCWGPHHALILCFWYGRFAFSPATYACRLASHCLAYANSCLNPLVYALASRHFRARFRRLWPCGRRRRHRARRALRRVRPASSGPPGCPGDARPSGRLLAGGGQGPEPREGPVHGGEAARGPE
Kind of experiment: competition.

Experiment [5] has as its target T1, rat GALR3. Kind of experiment: competition, 293-rGalR3-105.
In experiment [6] the target is T2, human GALR3. As to the kind of experiment: other, 125I-galanin saturation, L-hGalR3-228 membranes.
Experiment [7] deals with T1, rat GALR3. Kind of experiment: other, 125I-galanin saturation, COS-7 membranes.

B1: D-Trp2-galanin 1-29 (protein)
chain: KRGWTLNSAGYLLGPHAIDNHRSFHDKYGLAGKRELEPEDEARPGGFDRLQSEDKAIRTIMEFLAFLHLKEAGALGRLPGLPSAASSEDAGQS
modifications: D-Trp at position 2, mature numbering
On to B1, for which the Ki in experiment [1], in experiment [2], in experiment [3], in experiment [4] and in experiment [5] was more than 1 µM in each case.

B2: porcine galanin (protein)
chain: B1 chain
With B2, the Kd in experiment [6] was 0.00257 µM; in experiment [7], 0.00034 µM.

As a reminder, the Ki is the dissociation constant of the complex between target and ligand, obtained from inhibition or displacement. Lower therefore signals a stronger hold on the target. What is called Kd is the constant that tells how readily two partners part at equilibrium. A lower Kd goes with a tighter complex.
